Data reported in patent US20130260455A1 (ONCOMED PHARMACEUTICALS, published 2013).

Columns and labels:
[1] = molecular target: T1, mutant hNotch2 missing amino acids 375-412 (EGF repeat 10 deleted), on transfected cells (human, UniProt Q04721 26-2471); test: FACS on HEK-293 cells transiently transfected with human Notch2 Δaa 375-412 (EGF 10) and GFP
T1 construct: also called hNotch2 in the absence of EGF10
Protocol: FACS analysis of HEK-293 cells transiently transfected with the indicated Notch expression plasmid and GFP as a transfection control. GFP positive cells indicate expression of the transgene. Anti-Notch2 (59M70) was added at 20 μg/ml and detected by PE-conjugated goat anti-mouse (Caltag, #3004-4). 59R1 (IgG2) was added to the cells at 2 μg/ml and detected by PE-conjugated goat anti-human Fc gamma specific (Jackson Immunochemicals). Ligand binding was determined by incubation of the cells with human DLL4 extracellular domain (ECD) fused to rabbit IgG constant region at 5 μg/ml and detected by PE-conjugated donkey anti-rabbit.

[2] = molecular target: T2, human Notch4, full length, on transfected cells (human, UniProt Q99466 24-2003); test: FACS on HEK-293 cells transiently transfected with hNotch4 and GFP
T2 construct: also called hNotch4
Protocol: The ability of the 59R1 IgG2 antibody to cross-react with other Notch receptors was determined by FACS assay using HEK-293 cells transiently transfected with the human Notch1, Notch2. Notch3 or Notch4 expression plasmid and green fluorescent protein (GFP) as a transfection control. GFP positive cells indicated expression of the transgene. The 59R1 IgG2 was added to the cells at 2 μg/ml and detected by PE-conjugated goat anti-human Fc gamma specific (Jackson Immunochemicals). All Notch constructs were full length.

[3] = molecular target: T3, hNotch2 H385N AL 388-89 SN mutant, full length, on transfected cells (human, UniProt Q04721 26-2471); test: FACS on transfected cells
T3 construct: also called mutant hNotch2 in which certain EGF10 residues have been mutated to hNotch1 residues
Protocol: A comparison analysis of the EGF10 regions of human Notch1, Notch2, and Notch4 and the EGF9 region of human Notch3 (the equivalent of EGF10 in the other Notch receptors) was performed to determine likely binding sites for 59R1 (FIG. 14A). As a result of the analysis, several point mutants were created within full-length Notch2, converting residues within EGF10 to the corresponding amino acids in human Notch 1. Also, conversely, point mutations were made in hNotch1 EGF10 converting residues to the corresponding hN2 residues. Mutants in full-length Notch sequences were generated by QuikChange® mutagenesis (Stratagene) and verified by sequencing. Binding to the mutants was determined by FACS analysis (FIGS. 14B and 14C). 59R1 was detected by PE-conjugated goat anti-human Fc gamma specific antibody (Jackson Immunochemicals, #109-116-170). […] The corresponding residues in hNotch3 are histidine 361, alanine 364, and isoleucine 365.

T2 sequence (Q99466 24-2003 limits assumed): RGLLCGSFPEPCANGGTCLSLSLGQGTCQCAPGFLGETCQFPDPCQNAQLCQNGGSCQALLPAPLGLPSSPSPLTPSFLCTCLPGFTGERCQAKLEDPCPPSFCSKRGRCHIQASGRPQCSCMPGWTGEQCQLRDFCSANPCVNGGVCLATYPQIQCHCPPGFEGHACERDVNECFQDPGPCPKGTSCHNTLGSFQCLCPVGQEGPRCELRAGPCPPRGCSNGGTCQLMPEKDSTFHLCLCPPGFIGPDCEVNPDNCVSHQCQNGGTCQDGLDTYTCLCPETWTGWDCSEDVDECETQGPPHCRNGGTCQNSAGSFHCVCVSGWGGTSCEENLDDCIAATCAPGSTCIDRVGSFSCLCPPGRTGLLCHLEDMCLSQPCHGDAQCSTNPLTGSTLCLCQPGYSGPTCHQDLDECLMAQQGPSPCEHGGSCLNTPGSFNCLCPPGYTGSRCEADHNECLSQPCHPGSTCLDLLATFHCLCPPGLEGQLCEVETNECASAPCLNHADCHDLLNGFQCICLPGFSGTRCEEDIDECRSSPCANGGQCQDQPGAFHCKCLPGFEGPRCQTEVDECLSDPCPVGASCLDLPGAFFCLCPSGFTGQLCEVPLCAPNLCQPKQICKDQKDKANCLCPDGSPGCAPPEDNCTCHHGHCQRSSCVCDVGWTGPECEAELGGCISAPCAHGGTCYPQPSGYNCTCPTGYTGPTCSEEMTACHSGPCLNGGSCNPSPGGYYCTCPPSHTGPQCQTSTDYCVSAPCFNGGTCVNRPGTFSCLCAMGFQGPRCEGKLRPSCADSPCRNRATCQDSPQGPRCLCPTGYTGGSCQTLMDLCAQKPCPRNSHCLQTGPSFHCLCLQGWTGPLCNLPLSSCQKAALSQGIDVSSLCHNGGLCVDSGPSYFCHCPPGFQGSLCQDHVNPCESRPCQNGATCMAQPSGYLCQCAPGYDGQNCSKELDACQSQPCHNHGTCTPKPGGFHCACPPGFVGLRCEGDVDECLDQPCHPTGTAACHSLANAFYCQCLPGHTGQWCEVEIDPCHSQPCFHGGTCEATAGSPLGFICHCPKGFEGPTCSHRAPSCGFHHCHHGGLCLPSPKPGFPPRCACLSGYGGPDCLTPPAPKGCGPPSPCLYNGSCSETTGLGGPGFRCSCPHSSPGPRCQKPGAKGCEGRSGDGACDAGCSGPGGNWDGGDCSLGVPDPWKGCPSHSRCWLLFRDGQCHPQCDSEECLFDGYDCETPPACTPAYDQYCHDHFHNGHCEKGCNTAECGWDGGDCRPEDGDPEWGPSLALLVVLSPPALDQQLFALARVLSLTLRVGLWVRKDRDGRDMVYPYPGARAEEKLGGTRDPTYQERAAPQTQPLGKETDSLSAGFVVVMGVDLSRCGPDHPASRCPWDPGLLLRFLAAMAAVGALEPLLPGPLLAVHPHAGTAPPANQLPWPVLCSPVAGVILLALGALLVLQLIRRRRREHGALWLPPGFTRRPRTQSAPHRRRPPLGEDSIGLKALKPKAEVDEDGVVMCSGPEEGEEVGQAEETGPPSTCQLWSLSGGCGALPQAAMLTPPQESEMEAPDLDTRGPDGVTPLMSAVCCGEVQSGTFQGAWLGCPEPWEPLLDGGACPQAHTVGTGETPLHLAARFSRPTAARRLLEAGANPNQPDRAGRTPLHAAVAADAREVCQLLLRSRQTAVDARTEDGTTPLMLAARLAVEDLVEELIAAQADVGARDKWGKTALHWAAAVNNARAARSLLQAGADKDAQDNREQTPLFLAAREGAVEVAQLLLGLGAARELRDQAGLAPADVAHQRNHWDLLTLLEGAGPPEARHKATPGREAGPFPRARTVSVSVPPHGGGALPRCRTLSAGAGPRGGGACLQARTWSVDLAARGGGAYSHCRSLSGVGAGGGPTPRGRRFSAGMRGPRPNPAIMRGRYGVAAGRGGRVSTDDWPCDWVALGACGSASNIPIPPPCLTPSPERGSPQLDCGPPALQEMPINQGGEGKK
T3 sequence (Q04721 26-2471 H385N/A388S/L389N limits assumed): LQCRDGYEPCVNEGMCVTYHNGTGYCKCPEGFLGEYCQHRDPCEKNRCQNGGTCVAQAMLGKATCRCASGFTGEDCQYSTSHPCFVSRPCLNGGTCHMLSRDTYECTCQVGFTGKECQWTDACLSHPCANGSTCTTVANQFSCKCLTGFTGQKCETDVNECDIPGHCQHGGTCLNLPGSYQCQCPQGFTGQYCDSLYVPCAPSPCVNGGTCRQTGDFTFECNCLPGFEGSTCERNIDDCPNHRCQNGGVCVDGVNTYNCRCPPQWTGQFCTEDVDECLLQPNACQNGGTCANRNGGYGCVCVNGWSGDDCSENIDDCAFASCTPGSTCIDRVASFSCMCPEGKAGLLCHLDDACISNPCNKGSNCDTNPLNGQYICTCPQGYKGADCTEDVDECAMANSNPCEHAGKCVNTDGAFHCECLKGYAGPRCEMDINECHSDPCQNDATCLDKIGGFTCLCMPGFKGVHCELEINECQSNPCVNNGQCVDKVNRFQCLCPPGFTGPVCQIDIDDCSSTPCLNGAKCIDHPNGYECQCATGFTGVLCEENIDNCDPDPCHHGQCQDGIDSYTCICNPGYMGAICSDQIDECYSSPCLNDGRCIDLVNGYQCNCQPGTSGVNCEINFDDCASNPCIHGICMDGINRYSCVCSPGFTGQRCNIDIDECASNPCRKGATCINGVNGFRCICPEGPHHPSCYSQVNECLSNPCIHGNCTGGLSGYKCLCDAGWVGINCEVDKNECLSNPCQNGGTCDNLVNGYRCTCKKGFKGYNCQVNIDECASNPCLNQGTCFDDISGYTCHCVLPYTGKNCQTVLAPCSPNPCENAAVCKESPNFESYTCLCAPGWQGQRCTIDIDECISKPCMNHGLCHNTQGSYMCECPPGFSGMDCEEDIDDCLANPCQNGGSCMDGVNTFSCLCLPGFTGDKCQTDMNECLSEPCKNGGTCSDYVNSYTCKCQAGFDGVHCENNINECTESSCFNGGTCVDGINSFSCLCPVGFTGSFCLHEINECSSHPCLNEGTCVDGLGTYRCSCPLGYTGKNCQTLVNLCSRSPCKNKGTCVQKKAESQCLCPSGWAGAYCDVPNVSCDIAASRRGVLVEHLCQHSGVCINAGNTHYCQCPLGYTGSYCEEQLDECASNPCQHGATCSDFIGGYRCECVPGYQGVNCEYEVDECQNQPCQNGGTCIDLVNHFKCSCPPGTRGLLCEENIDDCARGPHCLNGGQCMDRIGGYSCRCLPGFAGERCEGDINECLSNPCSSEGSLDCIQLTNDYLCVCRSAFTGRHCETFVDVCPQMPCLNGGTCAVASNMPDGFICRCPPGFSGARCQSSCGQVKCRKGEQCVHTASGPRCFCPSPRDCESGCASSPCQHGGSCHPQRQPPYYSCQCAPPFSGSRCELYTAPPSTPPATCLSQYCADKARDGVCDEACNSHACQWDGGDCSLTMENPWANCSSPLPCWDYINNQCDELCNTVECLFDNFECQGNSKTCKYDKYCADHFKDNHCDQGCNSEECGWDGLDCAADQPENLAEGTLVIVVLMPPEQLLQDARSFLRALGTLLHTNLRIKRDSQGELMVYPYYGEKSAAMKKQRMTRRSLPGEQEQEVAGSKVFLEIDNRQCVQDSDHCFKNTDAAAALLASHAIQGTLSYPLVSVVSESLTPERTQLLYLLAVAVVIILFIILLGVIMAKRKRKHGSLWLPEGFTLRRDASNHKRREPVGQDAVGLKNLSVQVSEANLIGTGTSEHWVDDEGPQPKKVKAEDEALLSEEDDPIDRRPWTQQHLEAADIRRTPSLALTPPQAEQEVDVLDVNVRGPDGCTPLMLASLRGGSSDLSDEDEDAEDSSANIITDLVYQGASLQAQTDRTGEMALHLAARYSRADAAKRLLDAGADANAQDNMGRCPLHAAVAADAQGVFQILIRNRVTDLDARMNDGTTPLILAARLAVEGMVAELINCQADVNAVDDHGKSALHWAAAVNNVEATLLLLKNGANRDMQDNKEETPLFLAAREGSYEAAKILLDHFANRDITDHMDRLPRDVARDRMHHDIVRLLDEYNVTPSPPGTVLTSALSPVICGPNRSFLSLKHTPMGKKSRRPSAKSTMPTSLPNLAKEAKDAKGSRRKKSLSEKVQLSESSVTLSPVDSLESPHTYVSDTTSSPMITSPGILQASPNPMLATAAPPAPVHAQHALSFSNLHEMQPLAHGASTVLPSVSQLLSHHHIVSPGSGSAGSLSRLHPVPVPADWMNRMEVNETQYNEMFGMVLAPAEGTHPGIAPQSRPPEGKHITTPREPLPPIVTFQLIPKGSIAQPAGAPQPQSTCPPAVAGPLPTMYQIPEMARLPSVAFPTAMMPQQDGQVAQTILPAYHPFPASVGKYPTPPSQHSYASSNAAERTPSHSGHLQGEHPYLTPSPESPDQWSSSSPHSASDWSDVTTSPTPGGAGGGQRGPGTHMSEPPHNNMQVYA

binding result [1]: no binding (tested: 2 ug/ml)
binding result [2]: no binding (tested: 2 ug/ml)
binding result [3]: no binding
B1: 59R1 IgG2 antibody (antibody, V domains shown)
VH: QVQLVESGGGLVQPGGSLRLSCAASGFTFSSSGMSWVRQAPGKGLEWVSVIASSGSNTYYADSVKGRFTISRDNSKNTLYLQMNSLRAEDTAVYYCARGIFFAIWGQGTLVTVSS
VL: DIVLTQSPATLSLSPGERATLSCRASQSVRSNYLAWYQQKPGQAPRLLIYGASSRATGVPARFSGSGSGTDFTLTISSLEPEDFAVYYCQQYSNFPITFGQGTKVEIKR
notes: Human IgG2/kappa made in CHO cells; also called anti-Notch2/3 antibody 59R1
